In PMC3554691, “Systematic Functional Comparative Analysis of Four Single-Stranded DNA-Binding Proteins and Their Affection on Viral RNA Metabolism” (PLoS ONE, 2013):

What was measured:
[1] = biological target: SSB protein from Sulfolobus Solfataricus P2 (SSOB) (Sulfolobus Solfataricus P2) (UniProt Q97W73); assay: native gel or EMSA; 5 µg of ssob on non-denaturing gradient polyacrylamide gel, running buffer and gel at pH 7.4, poles reversed, Coomassie stained; self-association
[2] = biological target: the molecule itself; assay: native gel or EMSA; 5 µg of SSB protein on 3.5–5–12% non-denaturing gradient polyacrylamide gel with NativeMarker, Coomassie stained; self-association
[3] = biological target: T1, SSB protein from Thermococcus kodakarensis KOD1 (KOD) (Thermococcus kodakarensis KOD1); assay: as above; conditions: both partners purified
T1 chain: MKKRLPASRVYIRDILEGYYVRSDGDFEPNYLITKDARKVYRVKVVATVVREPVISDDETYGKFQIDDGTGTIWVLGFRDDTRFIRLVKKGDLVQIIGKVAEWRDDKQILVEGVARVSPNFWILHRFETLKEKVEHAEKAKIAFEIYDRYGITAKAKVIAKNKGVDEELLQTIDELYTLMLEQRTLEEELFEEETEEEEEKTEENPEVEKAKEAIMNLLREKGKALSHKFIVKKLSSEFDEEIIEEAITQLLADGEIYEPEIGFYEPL

## SSB protein from Sulfolobus Solfataricus P2 (SSOB) (from UniProt Q97W73 1-148) (natural protein)
[1]
  stoichiometry N: 4

B1: SSB protein from Thermus thermophilus HB8 (TTH) (natural protein, UniProt Q5SLP9 1-263, looked up)
chain: MARGLNRVFLIGALATRPDMRYTPAGLAILDLTLAGQDLLLSDNGGEREVSWYHRVRLLGRQAEMWGDLLDQGQLVFVEGRLEYRQWEREGERRSELQIRADFLDPLDDRGKERAEDSRGQPRLRAALNQVFLMGNLTRDPELRYTPQGTAVARLGLAVNERRQGAEERTHFVEVQAWRDLAEWAAELRKGDGLFVIGRLVNDSWTSSSGERRFQTRVEALRLERPTRGPAQAGGSRSREVQTGGVDIDEGLEDFPPEEELPF
notes: printed length 263 residues, monomer 29.8 kDa; also called TTH SSB protein; source: E. coli BL21 (DE3), purified (70°C heat treatment, Ni2+ Sepharose, dialysis); not shown: His6, N-terminal, kept
[2]
  stoichiometry N: 2

B2: SSB protein from Thermococcus kodakarensis KOD1 (KOD) (natural protein)
chain: MKKRLPASRVYIRDILEGYYVRSDGDFEPNYLITKDARKVYRVKVVATVVREPVISDDETYGKFQIDDGTGTIWVLGFRDDTRFIRLVKKGDLVQIIGKVAEWRDDKQILVEGVARVSPNFWILHRFETLKEKVEHAEKAKIAFEIYDRYGITAKAKVIAKNKGVDEELLQTIDELYTLMLEQRTLEEELFEEETEEEEEKTEENPEVEKAKEAIMNLLREKGKALSHKFIVKKLSSEFDEEIIEEAITQLLADGEIYEPEIGFYEPL
modifications: N-terminal His tag left out. The locus TK1959 (RPA41, the 41 kDa replication factor A subunit) is inferred from the printed 356 residues and 41.6 kDa; it is not printed in the paper. / N-terminal His
[3]
  stoichiometry N: 2
